According to publication PMC8844825 (iScience, 2022):

T1: myc-WT CARD11-FLAGx2 (murine, UniProt Q8CIS0 1-1159)
T1 sequence (looked up): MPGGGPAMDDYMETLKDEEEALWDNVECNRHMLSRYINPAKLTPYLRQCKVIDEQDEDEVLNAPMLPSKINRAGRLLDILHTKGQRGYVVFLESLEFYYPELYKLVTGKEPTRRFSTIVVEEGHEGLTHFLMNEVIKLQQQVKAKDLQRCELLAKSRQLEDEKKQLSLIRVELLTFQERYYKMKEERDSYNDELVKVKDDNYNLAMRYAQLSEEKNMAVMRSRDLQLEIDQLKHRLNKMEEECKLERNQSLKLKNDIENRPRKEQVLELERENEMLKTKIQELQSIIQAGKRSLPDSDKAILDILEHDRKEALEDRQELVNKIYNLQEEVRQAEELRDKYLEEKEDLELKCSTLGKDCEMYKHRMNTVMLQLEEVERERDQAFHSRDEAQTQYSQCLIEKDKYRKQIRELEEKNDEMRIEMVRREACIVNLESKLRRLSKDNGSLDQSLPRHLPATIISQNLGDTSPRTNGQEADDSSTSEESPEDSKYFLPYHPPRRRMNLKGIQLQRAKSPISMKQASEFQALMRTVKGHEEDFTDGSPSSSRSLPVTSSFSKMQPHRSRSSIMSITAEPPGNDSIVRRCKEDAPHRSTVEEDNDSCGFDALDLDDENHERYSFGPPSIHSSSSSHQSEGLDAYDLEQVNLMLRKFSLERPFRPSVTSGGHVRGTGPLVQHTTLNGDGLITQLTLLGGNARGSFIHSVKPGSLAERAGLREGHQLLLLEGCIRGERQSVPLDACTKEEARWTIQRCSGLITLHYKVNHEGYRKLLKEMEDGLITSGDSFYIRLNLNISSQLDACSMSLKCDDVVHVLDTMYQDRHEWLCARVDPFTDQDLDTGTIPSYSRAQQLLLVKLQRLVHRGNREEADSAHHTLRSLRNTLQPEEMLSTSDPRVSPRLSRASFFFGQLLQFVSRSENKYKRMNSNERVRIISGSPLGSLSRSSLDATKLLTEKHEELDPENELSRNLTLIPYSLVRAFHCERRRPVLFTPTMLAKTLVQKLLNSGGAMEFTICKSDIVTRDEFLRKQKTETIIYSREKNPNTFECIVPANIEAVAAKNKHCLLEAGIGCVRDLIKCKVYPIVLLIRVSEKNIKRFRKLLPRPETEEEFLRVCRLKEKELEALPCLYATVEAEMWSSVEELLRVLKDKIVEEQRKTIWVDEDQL


Biological target: T1, myc-WT CARD11-FLAGx2
Experiment: co-IP

| relative inducible binding (bound/input, normalised to WT) | Binder |
| --- | --- |
| 1 relative to WT | Bcl10 (endogenous, Jurkat T cells) (natural protein, human (endogenous in Jurkat), UniProt O95999 1-233, looked up) MEPTAPSLTEEDLTEVKKDALENLRVYLCEKIIAERHFDHLRAKKILSREDTEEISCRTSSRKRAGKLLDYLQENPKGLDTLVESIRREKTQNFLIQKITDEVLKLRNIKLEHLKGLKCSSCEPFPDGATNNLSRSNSDESNFSEKLRASTVMYHPEGESSTTPFFSTNSSLNLPVLEVGRTENTIFSSTTLPRPGDPGAPPLPPDLQLEEEGTCANSSEMFLPLRSRTVSRQ |
| 1 relative to WT | HOIP (endogenous, Jurkat T cells) (natural protein, human (endogenous in Jurkat), UniProt Q96EP0 1-1072, looked up) MPGEEEERAFLVAREELASALRRDSGQAFSLEQLRPLLASSLPLAARYLQLDAARLVRCNAHGEPRNYLNTLSTALNILEKYGRNLLSPQRPRYWRGVKFNNPVFRSTVDAVQGGRDVLRLYGYTEEQPDGLSFPEGQEEPDEHQVATVTLEVLLLRTELSLLLQNTHPRQQALEQLLEDKVEDDMLQLSEFDPLLREIAPGPLTTPSVPGSTPGPCFLCGSAPGTLHCPSCKQALCPACDHLFHGHPSRAHHLRQTLPGVLQGTHLSPSLPASAQPRPQSTSLLALGDSSLSSPNPASAHLPWHCAACAMLNEPWAVLCVACDRPRGCKGLGLGTEGPQGTGGLEPDLARGRWACQSCTFENEAAAVLCSICERPRLAQPPSLVVDSRDAGICLQPLQQGDALLASAQSQVWYCIHCTFCNSSPGWVCVMCNRTSSPIPAQHAPRPYASSLEKGPPKPGPPRRLSAPLPSSCGDPEKQRQDKMREEGLQLVSMIREGEAAGACPEEIFSALQYSGTEVPLQWLRSELPYVLEMVAELAGQQDPGLGAFSCQEARRAWLDRHGNLDEAVEECVRTRRRKVQELQSLGFGPEEGSLQALFQHGGDVSRALTELQRQRLEPFRQRLWDSGPEPTPSWDGPDKQSLVRRLLAVYALPSWGRAELALSLLQETPRNYELGDVVEAVRHSQDRAFLRRLLAQECAVCGWALPHNRMQALTSCECTICPDCFRQHFTIALKEKHITDMVCPACGRPDLTDDTQLLSYFSTLDIQLRESLEPDAYALFHKKLTEGVLMRDPKFLWCAQCSFGFIYEREQLEATCPQCHQTFCVRCKRQWEEQHRGRSCEDFQNWKRMNDPEYQAQGLAMYLQENGIDCPKCKFSYALARGGCMHFHCTQCRHQFCSGCYNAFYAKNKCPEPNCRVKKSLHGHHPRDCLFYLRDWTALRLQKLLQDNNVMFNTEPPAGARAVPGGGCRVIEQKEVPNGLRDEACGKETPAGYAGLCQAHYKEYLVSLINAHSLDPATLYEVEELETATERYLHVRPQPLAGEDPPAYQARLLQKLTEEVPLGQSIPRRRK |
